Target: NS1 (Influenza A virus (A/PR/8/34), UniProt P03496 P03496:1-230)
Experiment: EMSA; 2 pM siRNA with 0-200 pM protein as printed; on ice 20 min; native 5% PAGE
Conditions: tags: N-terminal His tag (pQE31, Qiagen); label: 5'-33P; 19-bp duplex with 3' dTdT overhangs

Chain of NS1 (P03496 whole entry, one chain of several): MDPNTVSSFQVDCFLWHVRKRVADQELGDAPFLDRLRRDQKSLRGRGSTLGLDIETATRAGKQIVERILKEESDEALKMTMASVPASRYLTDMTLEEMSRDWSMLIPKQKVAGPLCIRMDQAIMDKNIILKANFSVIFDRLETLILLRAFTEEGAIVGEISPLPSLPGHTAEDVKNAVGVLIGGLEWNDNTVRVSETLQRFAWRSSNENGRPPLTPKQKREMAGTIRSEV

B1: GL3 luciferase siRNA (dsRNA)
RNA 1: CUUACGCUGAGUACUUCGATT
RNA 2: UCGAAGUACUCAGCGUAAGTT
modifications: 3'-terminal TT of each strand are deoxynucleotides
B1: binds.

From patent publication US20050260166 (Phytovation B.V., published 2005)
